Substrate in this series: Oc1ccc(CCNCc2ccc(O)c(O)c2)cc1
The experiment in a line: purified protein. Conditions: 200 μM AdoMet, 50 μM-2 mM norbelladine, 30 mM potassium phosphate pH 8.0, 30°C, 2 h. The format is biochemical, Lycoris longituba.

B1: LlOMT (Lycoris longituba O-Methyltransferase) (Lycoris longituba) (protein)
chain: MGASQDDYALIHKNILHSEDLLKYILETSVYPREHEQLKGLREVTEKHEWSMALVAADEGLFLSMLLKLMNAKRTIEIGVYTGYSLLTTALALPEDGKITAIDVNKSYFEIGLPFIQKAGVEHKINFIESEALPVLDQMLQEMKEEDLYDFAFVDADKPNYANYHERLVKLVRVGGAIVYDNTLWFGTVAFPEYPGLHPEEEECRVSFRNLNKLLAADPRVEISQVSIGDGLTICRRLY
In the case of B1, the Michaelis constant (Km) was determined as 317 ± 17 µM.

For the origin of these results see publication PMC7525064, “Transcriptome Analysis of Different Tissues Reveals Key Genes Associated With Galanthamine Biosynthesis in Lycoris longituba” (Frontiers in Plant Science, 2020).
